The text below walks through data of US20160017052A1 (Genentech, published 2016).

The target of experiment [1] is T1, human factor D (human, UniProt P00746 26-253). Briefly: cell-based or functional assay.
Experiment [2] addresses T1, human factor D. Kind of experiment: SPR, KD compared with AFD.v14. For orientation: SPR reads the build-up and loss of mass on a sensor chip optically.
Method: The flow rate was 30 μL/min, the running buffer was HBS-P+, the temperature of analysis was 25° C., real-time reference cell subtraction was employed, and dissociation following factor D injection was followed for 10 minutes. After subtraction of the sensorgram observed for injection of running buffer, data were analyzed according to a 1:1 model using BiaEval software v4.1 (GE Healthcare) to extract the kinetics and affinity constants.

T1 sequence (P00746 26-253 limits assumed): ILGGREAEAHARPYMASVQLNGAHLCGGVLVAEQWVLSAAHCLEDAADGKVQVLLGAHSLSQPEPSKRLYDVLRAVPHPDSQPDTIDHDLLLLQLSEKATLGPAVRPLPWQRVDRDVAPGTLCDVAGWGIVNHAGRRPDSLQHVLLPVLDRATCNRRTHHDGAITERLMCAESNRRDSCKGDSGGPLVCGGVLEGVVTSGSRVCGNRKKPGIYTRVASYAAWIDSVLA

B1: AFD.v7 (TM.D92E; VL-D30E:D31S VH-D62E VL-D92E) (Fab, V domains shown)
VH: EVQLVQSGPELKKPGASVKVSCKASGYTFTNYGMNWVRQAPGQGLEWMGWINTYTGETTYAEDFKGRFVFSLDTSVSTAYLQISSLKAEDTAVYYCEREGGVNNWGQGTLVTVSS
VL: DIQVTQSPSSLSASVGDRVTITCITSTDIESDMNWYQQKPGKVPKLLISGGNTLRPGVPSRFSGSGSGTDFTLTISSLQPEDVATYYCLQSESLPYTFGQGTKVEIKR
Consider B1, for which the “IC50 (nM) AP Hemolysis” value with human factor D [1] turned out to be 3.8 nM.

B2: AFD.v8 (SIESD; VL-D28S:D30E:D31S VH-D62E) (Fab, V domains shown)
VH: EVQLVQSGPELKKPGASVKVSCKASGYTFTNYGMNWVRQAPGQGLEWMGWINTYTGETTYAEDFKGRFVFSLDTSVSTAYLQISSLKAEDTAVYYCEREGGVNNWGQGTLVTVSS
VL: DIQVTQSPSSLSASVGDRVTITCITSTSIESDMNWYQQKPGKVPKLLISGGNTLRPGVPSRFSGSGSGTDFTLTISSLQPEDVATYYCLQSDSLPYTFGQGTKVEIKR
Turning to B2, the “IC50 (nM) AP Hemolysis” value with human factor D [1] was found to be 4.2 nM.

B3: AFD.v15 (SIESD.N103S.D92E; VL-D28S:D30E:D31S:D92E VH-D62E:N103S) (Fab, V domains shown)
VH: EVQLVQSGPELKKPGASVKVSCKASGYTFTNYGMNWVRQAPGQGLEWMGWINTYTGETTYAEDFKGRFVFSLDTSVSTAYLQISSLKAEDTAVYYCEREGGVSNWGQGTLVTVSS
VL: DIQVTQSPSSLSASVGDRVTITCITSTSIESDMNWYQQKPGKVPKLLISGGNTLRPGVPSRFSGSGSGTDFTLTISSLQPEDVATYYCLQSESLPYTFGQGTKVEIKR
notes: Fab variant
Consider B3, for which the “fold decrease in affinity for fD against SIESD.N103S (AFD.v14)” value in the experiment with human factor D [2] was 4 fold.

B4: AFD.v14 (SIESD.N103S; VL-D28S:D30E:D31S VH-D62E VH-N103S) (Fab, V domains shown)
VH: EVQLVQSGPELKKPGASVKVSCKASGYTFTNYGMNWVRQAPGQGLEWMGWINTYTGETTYAEDFKGRFVFSLDTSVSTAYLQISSLKAEDTAVYYCEREGGVSNWGQGTLVTVSS
VL: DIQVTQSPSSLSASVGDRVTITCITSTSIESDMNWYQQKPGKVPKLLISGGNTLRPGVPSRFSGSGSGTDFTLTISSLQPEDVATYYCLQSDSLPYTFGQGTKVEIKR
With B4, the “IC50 (nM) AP Hemolysis” value in the experiment with human factor D [1] came out at 4.1 nM.
